From US20260027153A1 (published 2026)

Columns and labels:
[1] = target: HLA-A*02:01 restricted NY-ESO-1 C9V peptide (…) pMHC (human); assay: transduced PBMCs loaded on pMHC-labeled nanovials (20 µg/ml pMHC), anti-NGFR staining, flow cytometry
[2] = target: HLA-A*02:01 restricted NY-ESO-1 C9V peptide (…) pMHC (human); assay: transduced PBMCs loaded on pMHC-labeled nanovials (20 µg/ml pMHC), flow cytometry
[3] = target: T1, SCAMP3 (secretory carrier-associated membrane protein 3), cancer-enhanced splicing epitope peptide on … (human); assay: multimer staining
T1 peptide: STMYYLWML

[4] = target: T2, MEAF6 (MYST/Esa1 associated factor 6) splicing variant peptide on HLA-A*02:01 (human); assay: multimer staining
T2 peptide: SGMFDYDFEYV

1G4 TCR showed a fraction of nanovial-bound live cells with NGFR expression [1] of 93.9% and a fraction of nanovials occupied by live cells [2] of 17%.

B1: NVTCR19 (TCR, V domains shown)
Valpha: KQEVTQIPAALSVPEGENLVLNCSFTDSAIYNLQWFRQDPGKGLTSLLLIQSSQREQTSGRLNASLDKSSGRSTLYIAASQPGDSATYLCAVTSGGSYIPTFGRGTSLIVHP
Vbeta: DGGITQSPKYLFRKEGQNVTLSCEQNLNHDAMYWYRQDPGQGLRLIYYSQIVNDFQKGDIAEGYSVSREKKESFPLTVTSAQKNPTAFYLCASSDPFRSGTDSPLHFGNGTRLTVT
B1: recognises [3].

B2: NVTCR11 (TCR, V domains shown)
Valpha: GIQVEQSPPDLILQEGANSTLRCNFSDSVNNLQWFHQNPWGQLINLFYIPSGTKQNGRLSATTVATERYSLLYISSSQTTDSGVYFCAVDLNDYKLSFGAGTTVTVRA
Vbeta: NAGVTQTPKFRVLKTGQSMTLLCAQDMNHEYMYWYRQDPGMGLRLIHYSVGEGTTAKGEVPDGYNVSRLKKQNFLLGLESAAPSQTSVYFCASSSHGSTGELFFGEGSRLTVL
B2: recognises [3].

B3: NVTCR21 (TCR, V domains shown)
Valpha: AQSVAQPEDQVNVAEGNPLTVKCTYSVSGNPYLFWYVQYPNRGLQFLLKYITGDNLVKGSYGFEAEFNKSQTSFHLKKPSALVSDSALYFCAVRDTPSGSARQLTFGSGTQLTVLP
Vbeta: GAGVSQTPSNKVTEKGKYVELRCDPISGHTALYWYRQSLGQGPEFLIYFQGTGAADDSGLPNDRFFAVRPEGSVSTLKIQRTERGDSAVYLCASSLTSSGGGPYNEQFFGPGTRLTVL
B3: recognises [4].
